Results as given in the supplement of paper PMC5998384.

Tests used:
HeLa Kyoto [1] = assay: solubility in G1/S (NP-40 vs SDS abundance) (log2 ratio); higher = more soluble; settings: cell cycle stage: G1/S
HeLa Kyoto [2] = assay: thermal stability score vs G1/S (z-score of summed log2 fold changes over temperatures); higher = more thermally stable than in G1/S
HeLa Kyoto [3] = assay: solubility change mitosis vs G1/S (difference of NP-40 vs SDS log2 ratios) (log2 ratio difference); higher = more soluble in mitosis
HeLa Kyoto [4] = assay: melting temperature (median over replicates), in situ; higher = more thermally stable
[5] = cell cycle stage: early G1 (4.5 h after nocodazole release)
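Throughout, for melting temperature (median over replicates), in situ: HeLa Kyoto cells synchronized by double thymidine or nocodazole block, proteins quantified by TMT10plex mass spectrometry, three independent biological replicates.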
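Throughout, for solubility change mitosis vs G1/S (difference of NP-40 vs SDS log2 ratios): synchronized HeLa Kyoto cells (double thymidine block for G1/S, nocodazole release for mitosis), protein amounts in NP-40 versus SDS lysates quantified by mass spectrometry, three biological replicates.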
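Throughout, for solubility in G1/S (NP-40 vs SDS abundance): HeLa Kyoto cells arrested at G1/S by double thymidine block, proteins quantified by TMT10plex mass spectrometry in mild NP-40 versus SDS extracts, three biological replicates.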
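Throughout, for thermal stability score vs G1/S (z-score of summed log2 fold changes over temperatures): synchronized HeLa Kyoto cells, proteins quantified by TMT10plex mass spectrometry, three biological replicates, mitosis taken 0.5 h after nocodazole release, G1/S directly after double thymidine block.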

Sequence	solubility in G1/S (log2) (HeLa Kyoto [1])	thermal stability score (HeLa Kyoto [2]; [5])	thermal stability score (HeLa Kyoto [2]; cell cycle stage: mitosis)	solubility change mitosis (log2) (HeLa Kyoto [3])	melting temperature (HeLa Kyoto [4]; cell cycle stage: G1/S)	melting temperature (HeLa Kyoto [4]; cell cycle stage: mitosis)
MSGGSADYNREHGGPEGMDPDGVIESNWNEIVDNFDDMNLKESLLRGIYAYGFEKPSAIQQRAIIPCIKGYDVIAQAQSGTGKTATFAISILQQLEIEFKETQALVLAPTRELAQQIQKVILALGDYMGATCHACIGGTNVRNEMQKLQAEAPHIVVGTPGRVFDMLNRRYLSPKWIKMFVLDEADEMLSRGFKDQIYEIFQKLNTSIQVVLLSATMPTDVLEVTKKFMRDPIRILVKKEELTLEGIKQFYINVEREEWKLDTLCDLYETLTITQAVIFLNTRRKVDWLTEKMHARDFTVSALHGDMDQKERDVIMREFRSGSSRVLITTDLLARGIDVQQVSLVINYDLPTNRENYIHRIGRGGRFGRKGVAINFVTEEDKRILRDIETFYNTTVEEMPMNVADLI [EIF4A2]	0.106	-0.202	-1.09	-0.2	52.1 °C	51.5 °C
MSGIKKQKTENQQKSTNVVYQAHHVSRNKRGQVVGTRGGFRGCTVWLTGLSGAGKTTISFALEEYLVSHAIPCYSLDGDNVRHGLNRNLGFSPGDREENIRRIAEVAKLFADAGLVCITSFISPFAKDRENARKIHESAGLPFFEIFVDAPLNICESRDVKGLYKRARAGEIKGFTGIDSDYEKPETPERVLKTNLSTVSDCVHQVVELLQEQNIVPYTIIKDIHELFVPENKLDHVRAEAETLPSLSITKLDLQWVQVLSEGWATPLKGFMREKEYLQVMHFDTLLDDGVINMSIPIVLPVSAEDKTRLEGCSKFVLAHGGRRVAILRDAEFYEHRKEERCSRVWGTTCTKHPHIKMVMESGDWLVGGDLQVLEKIRWNDGLDQYRLTPLELKQKCKEMNADAVFAFQLRNPVHNGHALLMQDTRRRLLERGYKHPVLLLHPLGGWTKDDDVPLDWRMKQHAAVLEEGVLDPKSTIVAIFPSPMLYAGPTEVQWHCRSRMIAGANFYIVGRDPAGMPHPETKKDLYEPTHGGKVLSMAPGLTSVEIIPFRVAAYNKAKKAMDFYDPARHNEFDFISGTRMRKLAREGENPPDGFMAPKAWKVLTDYYRSLEKN [PAPSS2]	-0.0222	2.13	3.19	-0.108	52.2 °C	53.1 °C
MSGPTWLPPKQPEPARAPQGRAIPRGTPGPPPAHGAALQPHPRVNFCPLPSEQCYQAPGGPEDRGPAWVGSHGVLQHTQGLPADRGGLRPGSLDAEIDLLSSTLAELNGGRGHASRRPDRQAYEPPPPPAYRTGSLKPNPASPLPASPYGGPTPASYTTASTPAGPAFPVQVKVAQPVRGCGPPRRGASQASGPLPGPHFPLPGRGEVWGPGYRSQREPGPGAKEEAAGVSGPAGRGRGGEHGPQVPLSQPPEDELDRLTKKLVHDMNHPPSGEYFGQCGGCGEDVVGDGAGVVALDRVFHVGCFVCSTCRAQLRGQHFYAVERRAYCEGCYVATLEKCATCSQPILDRILRAMGKAYHPGCFTCVVCHRGLDGIPFTVDATSQIHCIEDFHRKFAPRCSVCGGAIMPEPGQEETVRIVALDRSFHIGCYKCEECGLLLSSEGECQGCYPLDGHILCKACSAWRIQELSATVTTDC [TRIP6]	-0.106	0.24	-0.443	-0.132	52 °C	52 °C
MSGQRVDVKVVMLGKEYVGKTSLVERYVHDRFLVGPYQNTIGAAFVAKVMSVGDRTVTLGIWDTAGSERYEAMSRIYYRGAKAAIVCYDLTDSSSFERAKFWVKELRSLEEGCQIYLCGTKSDLLEEDRRRRRVDFHDVQDYADNIKAQLFETSSKTGQSVDELFQKVAEDYVSVAAFQVMTEDKGVDLGQKPNPYFYSCCHH [RAB24]	-0.101	-0.25	-0.316	-0.172	53.8 °C	54.2 °C
MSGSMATAEASGSDGKGQEVETSVTYYRLEEVAKRNSLKELWLVIHGRVYDVTRFLNEHPGGEEVLLEQAGVDASESFEDVGHSSDAREMLKQYYIGDIHPSDLKPESGSKDPSKNDTCKSCWAYWILPIIGAVLLGFLYRYYTSESKSS [CYB5B]	-0.0447	1.14	-0.285	0.0898	57.2 °C	–
MSHGHSHGGGGCRCAAEREEPPEQRGLAYGLYLRIDLERLQCLNESREGSGRGVFKPWEERTDRSKFVESDADEELLFNIPFTGNVKLKGIIIMGEDDDSHPSEMRLYKNIPQMSFDDTEREPDQTFSLNRDLTGELEYATKISRFSNVYHLSIHISKNFGADTTKVFYIGLRGEWTELRRHEVTICNYEASANPADHRVHQVTPQTHFIS [PITHD1]	0.0556	-1.84	-2.51	-0.108	56.2 °C	59.5 °C
MSHLPMKLLRKKIEKRNLKLRQRNLKFQGASNLTLSETQNGDVSEETMGSRKVKKSKQKPMNVGLSETQNGGMSQEAVGNIKVTKSPQKSTVLTNGEAAMQSSNSESKKKKKKKRKMVNDAEPDTKKAKTENKGKSEEESAETTKETENNVEKPDNDEDESEVPSLPLGLTGAFEDTSFASLCNLVNENTLKAIKEMGFTNMTEIQHKSIRPLLEGRDLLAAAKTGSGKTLAFLIPAVELIVKLRFMPRNGTGVLILSPTRELAMQTFGVLKELMTHHVHTYGLIMGGSNRSAEAQKLGNGINIIVATPGRLLDHMQNTPGFMYKNLQCLVIDEADRILDVGFEEELKQIIKLLPTRRQTMLFSATQTRKVEDLARISLKKEPLYVGVDDDKANATVDGLEQGYVVCPSEKRFLLLFTFLKKNRKKKLMVFFSSCMSVKYHYELLNYIDLPVLAIHGKQKQNKRTTTFFQFCNADSGTLLCTDVAARGLDIPEVDWIVQYDPPDDPKEYIHRVGRTARGLNGRGHALLILRPEELGFLRYLKQSKVPLSEFDFSWSKISDIQSQLEKLIEKNYFLHKSAQEAYKSYIRAYDSHSLKQIFNVNNLNLPQVALSFGFKVPPFVDLNVNSNEGKQKKRGGGGGFGYQKTKKVEKSKIFKHISKKSSDSRQFSH [DDX18]	-2.49	1.68	1.02	1.1	51 °C	52 °C
